Measurements from paper PMC4445678 (Structure (London, England : 1993), 2010).
Where two headings read alike, the source gives them in different places. One block for each molecule: values may come before it.

Assays:
CBX7 cbox (Homo sapiens) = CBX7 cbox (Homo sapiens) (UniProt O95931); details: cited from earlier work
[1] = biological target: T1, C-RING1B (C-terminal domain of RING1B), wild-type (human, UniProt Q99496 222-336); test: SPR
T1 sequence (looked up): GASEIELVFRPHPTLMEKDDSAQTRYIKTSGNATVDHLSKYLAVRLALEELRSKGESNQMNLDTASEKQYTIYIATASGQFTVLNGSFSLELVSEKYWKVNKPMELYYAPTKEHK

C-RING1B 223–333 N306D [2] = biological target: T2, C-RING1B 223–333 N306D (human, UniProt Q99496 223-333, N306D); test: crystal structure
T2 sequence (looked up): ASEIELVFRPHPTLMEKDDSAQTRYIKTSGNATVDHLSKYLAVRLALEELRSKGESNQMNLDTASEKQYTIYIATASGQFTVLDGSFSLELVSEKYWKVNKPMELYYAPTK

C-RING1B 223–333 N306D [3] = biological target: T2, C-RING1B 223–333 N306D; test: crystal structure; remark: listed apart in the source
[4] = biological target: T1, C-RING1B (C-terminal domain of RING1B), …; test: AUC

Molecule: RING1B C-RING1B (from UniProt Q99496)
- Kd (CBX7 cbox (Homo sapiens)): 9.2 nM

Molecule: RPRLKNVDRSTAQQLAVTVGNVTVIITDFKEKTRS (domain or fragment, human, UniProt Q8N488 145-179, looked up) [MBP-RYBP 145–179]
- Kd [1]: 90 nM

B2: MBP-RYBP 145–198 (domain or fragment, human, UniProt Q8N488 145-198, looked up)
chain: RPRLKNVDRSTAQQLAVTVGNVTVIITDFKEKTRSSSTSSSTVTSSAGSEQQNQ
- Kd [1]: 100 nM

Further lines, results first:

- binding result (C-RING1B 223–333 N306D [2]): binds
Molecule: RPRLKNVDRSTAQQLAVTVGNVTVIITDFKEKTRS (domain or fragment, human, UniProt Q8N488 145-179, looked up) [RYBP 145–179]

- binding result (C-RING1B 223–333 N306D [3]): binds
Molecule: EVTVTDITANSITVTFREAQAAEGFFRDRS (domain or fragment, human, UniProt O95931 219-248, looked up) [cbx7 219–248]

- stoichiometry N [4]: 1
B1: RYBP 145–198 (domain or fragment, human, UniProt Q8N488 145-198, looked up)
chain: B2 chain
